Results as given in the domain aggregation screens of Martell et al. (2025).

experiment: soluble fraction after stress (log2 fold change); higher = more stays soluble; pooled small domains, quantitative proteomics; conditions: stress: 50 degC
Method in brief: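 Each library was heated to 50°C as a stress step. The libraries, made up of small protein domains, were pooled and analysed at high throughput by quantitative proteomics. The reported value is the base-two logarithm of the fold change in each protein's soluble amount after stress, taken as a measure of aggregation propensity. The higher the value, the more protein stays in solution.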

Sequence	soluble fraction (log2)
HMQDEAQLSMSNKYIFEGNSIVKDNFIEAEKKYRLGVSAKPNNAVGSYNLANAYYNSKLYDEAMLRLL	0.272
HMQISDVSLIAKVIDDVIDNNVKSVSDYLEGNLNVLRFLVGQVMKETKGKANPQKATELLQEKLESLNN	-0.429
HMAEDGNMTFEEYAKRWLARQVRYAPSTLESYRRMLGRVYPFIGAIPINRLRPIALENLLAELRKRT	-0.48
HMKNHIEERRKARGMTQQQLASELGVSRQTIISLENGKYNPSILLAHSIARLFGERIEDIFILR	-1.6
HMYATQLLQLEEMGFFDRAENIRALRATNGNVNAAVERL	0.0407
HMYFFNTFTQRLFDNPELTQEEAIRQMYPGISGVQTAEKLQENFMADVYIQAAIRQEIVVQLIR	-0.529
HMDDFITLVIHTPAHAQNLRNILESHGMEVRLEDFVSFKSPVAVAQRVKIRPKDLPLALKIIESGE	0.227
HMEGLDDKTKIILFAGDKKEQEYSLADLKSKLNITENLTESELIKLLEKQGYVLDVNANNEFMFKKD	-0.0985
HMGPASTGAHQLGLKPGDEVTHRAWGEGVVTSTTGEGDRAEAVVDFDAVGEKRLLLAWAPLER	0.00864
HMQDEREEIAVEDVVGMPLWQARKVIADQGFRVLDDGAGDIVIAQMPSGGGKLIEGGQVMLYTYTD	0.186
HMGSATAPDLKGLTYEQAQTKAEDAGYNIEKGEDVYDNDVEKGKVASQDPEAGAEAKEGSVITVNISK	-0.0349
HMKILKQLEAIIEKEGLNESAKQFYLREISELDKEKQQEIINLVDKMEQAGFKNNLASAFSEVTEDIPQF	-0.0195
HMLWTDTKYVTVPDFVGKEPKEIESSYLYNIEYHGEGTKVISQQPAAFSRTIEGGTVRLYLG	0.0884
HMPAAKARTWQEATHAFQRDFLLETLRRARFNAADAADQLGLARPALYTTAKRLGLDLVAERQRWEAEAH	-0.173
HMESSNLESQLKKGIVPNLNGLSAKDALFLLENSGFNVKLYGMGSVKKQSLEAGKKYNKGDKITLIL	0.112
HMDTIASESVRNRIEELISNENPKKPLSDQALVKMLQEFDIKIARRTVAKYREMLKIPPSSKRKQV	0.0652
HMEWVVVPDVRRQLLPEAQRRVNKARLRLEVAGGWPAEPLLAMVVDQKPGPETRVPLNSIVVVVVRNLP	-0.0473
HMQFHQDNYALEFIRDLQPVDGAIILSRFKQFDLVELEKAKKIKFSDEHMAWTLYDYDIKKIN	-2.3
HMTSHYTVLGVKETDTIEMIRTHYRKLILQFHPDKNQHLTEEERKKLEVKVLQIREAYEKIKKEK	-0.214

Sequence	soluble fraction (log2)
HMENLQLQQLVKGLPEKMQEIVILRFSQELTMREIADIVNLPMRTVQSQLRLALKILKKEMG	-0.447
HMTVLVPNLTGKTLLEAEILLDQAGLKKGDVYSESNKNVPKDHIIRQKPAPNTKIQKGATIDIYRSLGPE	0.133
HMNATLEQLTQREREIAVLMAEGLTNAQIGSRLNVSMASVKAHLSHIFTKLGVDNRVSAAMMVL	-0.654
HMPSPSTLAKVDPFLLVTNADSLLMARPDDSELRAAIITAHINLAKTNNSVDHYKEVLKIEPQNALANYN	0.0175
HMGTISKRINPSGTTVYRAVIRIRKNGYPNFTESRTFSKKSMAAEWVKRREAEIELNPDILFG	-2.13
HMGIVVDGTMTLEGVAERYGMSVGELARVIGVPPEYSNERLGRLRKSYEFEMDDIRIYIIQKQ	-1.31
HMEGDAFAFTGDIQKDLLSITAVHPMRREAVDALIAKAGASWAIVEKLLAHGELTEAKHDGHLFYLRKF	-0.81
HMAVTEVKTTAVVNMRSSDSEKADKLGKAQIGDTFRVLEQRANGWTKLTDGTQEFFIKSEYLEAIA	0.0956
HMKQQFTREQIIELMYKAYKKHKKKLNRVEIKKEKALPSYVTIGRYLNETSIKKIWEIVLSEKE	-0.43
HMNFKNMIDSLSGILFKKDPSAAIIDIGGVRLKVFITVGSYEQLPAKGEQVEILTYLHVKEDILNLYG	-0.242
HMAPSLSEYAYEEIKHAIERGVYPPGAKLITQEIADRLGISRTPVVAAVNRLTAEGYADAVPQHGIFVK	0.0573
HMVQMKIRAYELEPNDFFIKQNMTYRVMRIQNGMIYAKHLLNSTPITFGAKSMEFVLWTGKYS	-2.36
HMGNAQELQKKLEGLKGISGIEKLESDHYAEKYLVRITQPVDHKNPAAGTFTQRVIVAHVGFDRPTILVT	0.511
HMGDITALMPGKVIQIIVKEGQEIKVGDPLIVIESMKMENTISSEVNGTIKSINIQIDDNVQFDQVLFTV	-2.1
HMTLGARTLAAIQSLPKVQQAVFTMKHFEGLKYREISQITGTSEGALKASYHIALEKIKAFLREK	-2.53
HMQMSWDAVKARLQDIVNNEDKTKPFNDEMLASKLKEQGIEIARRTVVKYRQQLGIPAARLRKK	-0.468
HMQEKLELIIPVSSIGKRADVAIQDLLSSYSRAKIQEWIKSGFILLESKKISPKDIFMGGERVFIDIQQDE	-1.41
HMERTQSIEAAREQLGEVTKDNVFETETLGALAILKENEPGEYAKIKADLKGKINMNDLERAVKKAAADQR	≥ 0.62
HMQGVTVPDLTRVSLEEAVATISSLGLRYEISDRRSNAAFPANYVLDQAPGANTIVKPNRKVYLTVNAA	0.35
